Like-named read-outs stand apart in the source and are kept apart here.
How the values were obtained:
[1] = target: human C1q (Calbiochem) (human, UniProt P02745 23-245; P02746 28-253; P02747 29-245); test: ELISA: antibody coated on the plate at the concentration shown, human C1q added, detected with HRP anti-human C1q, OD 450 nm
[2] = target: mouse C1q (from 10% mouse plasma) (mouse, UniProt P98086 23-245; P14106 26-253; Q02105 30-246); test: ELISA: antibody coated on the plate at the concentration shown, 10% mouse plasma added, detected with biotinylated anti-mouse C1q and streptavidin-HRP, OD 405 nm
Chain of mouse C1q (from 10% mouse plasma) (P98086 23-245 limits assumed, chain 1 of 3): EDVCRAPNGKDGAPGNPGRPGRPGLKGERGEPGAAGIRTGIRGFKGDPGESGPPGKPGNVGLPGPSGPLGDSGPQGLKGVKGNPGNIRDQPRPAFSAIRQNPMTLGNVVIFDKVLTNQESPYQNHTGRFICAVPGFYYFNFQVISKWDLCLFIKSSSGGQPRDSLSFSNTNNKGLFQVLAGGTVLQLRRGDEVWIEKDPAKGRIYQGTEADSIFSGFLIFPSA
Chain of mouse C1q (from 10% mouse plasma) (P14106 26-253 limits assumed, chain 2 of 3): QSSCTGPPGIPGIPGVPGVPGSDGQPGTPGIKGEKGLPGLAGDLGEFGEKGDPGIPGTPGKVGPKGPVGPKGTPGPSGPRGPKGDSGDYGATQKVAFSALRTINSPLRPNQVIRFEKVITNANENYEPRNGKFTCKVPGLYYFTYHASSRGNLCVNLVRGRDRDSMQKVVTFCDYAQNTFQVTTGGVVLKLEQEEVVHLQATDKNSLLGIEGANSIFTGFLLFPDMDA
Chain of mouse C1q (from 10% mouse plasma) (Q02105 30-246 limits assumed, chain 3 of 3): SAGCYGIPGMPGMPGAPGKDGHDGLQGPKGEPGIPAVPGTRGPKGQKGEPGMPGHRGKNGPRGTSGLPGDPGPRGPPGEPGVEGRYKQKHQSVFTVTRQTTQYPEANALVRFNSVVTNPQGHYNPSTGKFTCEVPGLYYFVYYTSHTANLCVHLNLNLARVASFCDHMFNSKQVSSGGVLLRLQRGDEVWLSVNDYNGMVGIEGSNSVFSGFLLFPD

[3] = target: T1, human FcγRIa (human, UniProt P12314 16-292); test: SPR (Biacore T200, pH 7.4, 25 °C): His-tagged FcγR captured by anti-His antibody; antibody injected at 100 nM alone (Ab alone) or as 1:1 complex with trimeric CD154 (CD154 IC); binding level / capture level [A]
T1 construct: also called human FcγR1a
T1 sequence (P12314 16-292 limits assumed): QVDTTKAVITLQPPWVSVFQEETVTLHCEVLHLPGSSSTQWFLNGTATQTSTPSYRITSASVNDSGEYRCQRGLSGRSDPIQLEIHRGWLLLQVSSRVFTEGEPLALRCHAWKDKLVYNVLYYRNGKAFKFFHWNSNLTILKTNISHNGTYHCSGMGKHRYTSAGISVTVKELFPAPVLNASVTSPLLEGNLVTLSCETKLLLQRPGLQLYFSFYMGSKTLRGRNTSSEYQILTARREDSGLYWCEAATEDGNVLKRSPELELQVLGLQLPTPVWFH

[4] = target: T2, human FcγRIIIa (158V) (human, UniProt P08637 17-208); test: SPR (Biacore T200, pH 7.4, 25 °C): His-tagged FcγR captured by anti-His antibody; antibody injected at 100 nM alone (Ab alone) or as 1:1 complex with trimeric CD154 (CD154 IC); binding level / capture level [F]
T2 construct: also called human FcγR3a allelic variant 158V
T2 sequence (P08637 other isoform, or with tags, fused parts or gaps limits assumed): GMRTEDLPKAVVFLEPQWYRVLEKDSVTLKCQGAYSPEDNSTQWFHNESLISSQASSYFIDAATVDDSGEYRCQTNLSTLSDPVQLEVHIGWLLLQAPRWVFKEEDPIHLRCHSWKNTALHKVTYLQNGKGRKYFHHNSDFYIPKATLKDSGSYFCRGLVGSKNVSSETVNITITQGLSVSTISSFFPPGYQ

[5] = target: T3, Recombinant soluble E protein (0.8E-His) from DENV-1 (DENV-1, UniProt P27909 281-675)
T3 construct: also called DENV-1 E protein; DV1

[6] = target: T4, Recombinant soluble E protein (0.8E-His) from DENV-3 (DENV-3, UniProt P27915 281-673)
T4 construct: also called DENV-3 E protein; DV3

[7] = target: T5, Recombinant soluble E protein (0.8E-His) from DENV-4 (DENV-4, UniProt P09866 280-674)
T5 construct: also called DENV-4 E protein; DV4

[8] = target: T3, Recombinant soluble E protein …; remark: listed apart in the source
[9] = target: T4, Recombinant soluble E protein …; test: SPR, Biacore T200
[10] = target: T6, Recombinant soluble E protein (0.8E-His) from DENV-2 (DENV-2, UniProt P14340 281-675)
T6 construct: also called DENV-2 E protein; DV2

Chain of human C1q (Calbiochem) (P02745 23-245 limits assumed, chain 1 of 3): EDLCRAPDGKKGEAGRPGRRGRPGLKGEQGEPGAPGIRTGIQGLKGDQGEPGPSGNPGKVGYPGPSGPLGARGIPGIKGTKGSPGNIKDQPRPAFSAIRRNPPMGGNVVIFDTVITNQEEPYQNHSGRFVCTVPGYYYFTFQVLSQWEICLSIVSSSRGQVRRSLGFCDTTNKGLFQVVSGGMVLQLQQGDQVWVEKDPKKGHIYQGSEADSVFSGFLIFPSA
Chain of human C1q (Calbiochem) (P02746 28-253 limits assumed, chain 2 of 3): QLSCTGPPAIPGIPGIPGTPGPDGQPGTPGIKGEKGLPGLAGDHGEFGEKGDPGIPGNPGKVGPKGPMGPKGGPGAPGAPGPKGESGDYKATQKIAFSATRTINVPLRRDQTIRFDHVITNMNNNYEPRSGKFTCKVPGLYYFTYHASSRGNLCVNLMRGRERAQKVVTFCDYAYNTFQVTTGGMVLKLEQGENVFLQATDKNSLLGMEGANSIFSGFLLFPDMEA
Chain of human C1q (Calbiochem) (P02747 29-245 limits assumed, chain 3 of 3): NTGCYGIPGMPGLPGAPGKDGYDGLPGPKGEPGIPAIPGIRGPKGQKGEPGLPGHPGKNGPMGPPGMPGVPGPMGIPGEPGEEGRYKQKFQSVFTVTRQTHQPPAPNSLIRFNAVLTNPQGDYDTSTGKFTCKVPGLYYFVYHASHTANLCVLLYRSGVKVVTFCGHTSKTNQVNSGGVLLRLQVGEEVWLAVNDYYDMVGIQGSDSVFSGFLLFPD

| Binder | binding result [1] | Kd [5] | Kd [6] | Kd [7] | Kd [10] | further results |
| --- | --- | --- | --- | --- | --- | --- |
| Anti-CD154 antibody (SLAPH0336a/SLAPL0336a) with Fc variant LALA+KAES (SG1095) (antibody, human IgG1, kappa, L234A L235A) heavy: EVQLVESGGGSVKPGGSLKLSCAASGFTFSDHYMYWVRQTPEKRLEWVAIISGGGSYTSYPDSMKGRFTISRDNAKNILHLQMSSLKSEDTAMYYCTRESNGKPGFAYWGQGTLVTVSAASTKGPSVFPLAPSSKSTSGGTAALGCLVKDYFPEPVTVSWNSGALTSGVHTFPAVLQSSGLYSLSSVVTVPSSSLGTQTYICNVNHKPSNTKVDKRVEPKSCDKTHTCPPCPAPEAAGGPSVFLFPPKPKDTLMISRTPEVTCVVVDVSHEDPEVKFNWYVDGVEVHNAKTKPREEQYNSTYRVVSVLTVLHQDWLNGKEYKCKVSNAALPAPISKTISKAKGQPREPQVYTLPPSREEMTKNQVSLTCLVKGFYPSDIAVEWESNGQPENNYKTTPPVLDSDGSFFLYSKLTVDKSRWQQGNVFSCSVMHEALHNHYTQKSLSLSP light: not shown | binds | – | – | – | – | binding result [2]: binds; binding result [3]: binds; binding result [4]: binds |
| Anti-CD154 antibody (SLAPH0336a/SLAPL0336a) with Fc variant LALA+KEES (SG1097) (antibody, human IgG1, kappa, L234A L235A) heavy: EVQLVESGGGSVKPGGSLKLSCAASGFTFSDHYMYWVRQTPEKRLEWVAIISGGGSYTSYPDSMKGRFTISRDNAKNILHLQMSSLKSEDTAMYYCTRESNGKPGFAYWGQGTLVTVSAASTKGPSVFPLAPSSKSTSGGTAALGCLVKDYFPEPVTVSWNSGALTSGVHTFPAVLQSSGLYSLSSVVTVPSSSLGTQTYICNVNHKPSNTKVDKRVEPKSCDKTHTCPPCPAPEAAGGPSVFLFPPKPKDTLMISRTPEVTCVVVDVSHEDPEVKFNWYVDGVEVHNAKTKPREEQYNSTYRVVSVLTVLHQDWLNGKEYKCKVSNEALPAPISKTISKAKGQPREPQVYTLPPSREEMTKNQVSLTCLVKGFYPSDIAVEWESNGQPENNYKTTPPVLDSDGSFFLYSKLTVDKSRWQQGNVFSCSVMHEALHNHYTQKSLSLSP light: not shown | binds | – | – | – | – | – |
| Anti-CD154 antibody (SLAPH0336a/SLAPL0336a) with Fc variant LALA+KMES (SG1098) (antibody, human IgG1, kappa, L234A L235A) heavy: EVQLVESGGGSVKPGGSLKLSCAASGFTFSDHYMYWVRQTPEKRLEWVAIISGGGSYTSYPDSMKGRFTISRDNAKNILHLQMSSLKSEDTAMYYCTRESNGKPGFAYWGQGTLVTVSAASTKGPSVFPLAPSSKSTSGGTAALGCLVKDYFPEPVTVSWNSGALTSGVHTFPAVLQSSGLYSLSSVVTVPSSSLGTQTYICNVNHKPSNTKVDKRVEPKSCDKTHTCPPCPAPEAAGGPSVFLFPPKPKDTLMISRTPEVTCVVVDVSHEDPEVKFNWYVDGVEVHNAKTKPREEQYNSTYRVVSVLTVLHQDWLNGKEYKCKVSNMALPAPISKTISKAKGQPREPQVYTLPPSREEMTKNQVSLTCLVKGFYPSDIAVEWESNGQPENNYKTTPPVLDSDGSFFLYSKLTVDKSRWQQGNVFSCSVMHEALHNHYTQKSLSLSP light: not shown | binds | – | – | – | – | – |
| LALA + KDES (antibody, human IgG1, kappa, L234A L235A, also called Anti-CD154 antibody (SLAPH0336a/SLAPL0336a) with Fc variant LALA+KDES (SG1096); SG1096) heavy chain: EVQLVESGGGSVKPGGSLKLSCAASGFTFSDHYMYWVRQTPEKRLEWVAIISGGGSYTSYPDSMKGRFTISRDNAKNILHLQMSSLKSEDTAMYYCTRESNGKPGFAYWGQGTLVTVSAASTKGPSVFPLAPSSKSTSGGTAALGCLVKDYFPEPVTVSWNSGALTSGVHTFPAVLQSSGLYSLSSVVTVPSSSLGTQTYICNVNHKPSNTKVDKRVEPKSCDKTHTCPPCPAPEAAGGPSVFLFPPKPKDTLMISRTPEVTCVVVDVSHEDPEVKFNWYVDGVEVHNAKTKPREEQYNSTYRVVSVLTVLHQDWLNGKEYKCKVSNDALPAPISKTISKAKGQPREPQVYTLPPSREEMTKNQVSLTCLVKGFYPSDIAVEWESNGQPENNYKTTPPVLDSDGSFFLYSKLTVDKSRWQQGNVFSCSVMHEALHNHYTQKSLSLSP light chain: not shown | binds | – | – | – | – | – |
| DG_3CH-SG182/3CL-SK1 (antibody, human IgG1, kappa, V domains shown) VH: QVQLVQSGPDVEKPGASVKVSCKASGYTFTSNYIHWVRQAPGQGLEWMGVINPRGGSTASAQKFQGRITMTRDTSTSTVYMELSSLRSDDTAVYYCARGGRALFYDSYTTPRDGGSWWFDPWGQGSLVTVSS VL: DIQLTQSPSSLSASVGDRVTFTCQASQDIRKYLNWYQQKPGKAPKLLIYDASNLKTGVPSRFSGSGSGTDFTFTISSLQPEDVATYYCQQFDDLPITFGQGTRLQIKR | – | 32.1 nM | 6.07 nM | 16.9 nM | – | Kd [8]: 22.5 nM |
| DG_3CH912-SG182/3CL-SK1 (antibody, human IgG1, kappa, V domains shown) VH: QVQLVQSGPDVEKPGASVKVSCKASGYTFTSNYIHWVRQAPGQGLEWMGVINPRGGSRASAQKFQGRITMTRDTSTSTVYMELSSLRSEDTAVYYCARGGRALFYDSYTTPFDGGSWWFDPWGQGSLVTVSS VL: DIQLTQSPSSLSASVGDRVTFTCQASQDIRKYLNWYQQKPGKAPKLLIYDASNLKTGVPSRFSGSGSGTDFTFTISSLQPEDVATYYCQQFDDLPITFGQGTRLQIKR | – | 1.85 nM | – | 8.78 nM | 0.811 nM | binding result [9]: binds |
| DG_3CH953-SG182/3CL499-SK1 (antibody, V domains shown) VH: QVQLVQSGPDVEKPGASVKVSCKASGYTFTSNYIHWVRQAPGQGLEWMGVINPRGGSRRSAQKFQGRITMTRDTSTSTVYMELSSLRSEDTAVYYCARGGRALFYDSYTTPFDGGSWWFDPWGQGSLVTVSS VL: DIQLTQSPSSLSASVGDRVTFTCQASQDIRKYLNWYQQKPGKAPKLLIYDASNLKFGVPSRFSGSGSGTDFTFTISSLQPEDVATYYCQQFDALPITFGQGTRLQIKR | – | 1.46 nM | 0.211 nM | 5.99 nM | 0.905 nM | – |
| DG_3CH953-SG182/3CL563-SK1 (antibody, human IgG1, kappa, V domains shown) VH: QVQLVQSGPDVEKPGASVKVSCKASGYTFTSNYIHWVRQAPGQGLEWMGVINPRGGSRRSAQKFQGRITMTRDTSTSTVYMELSSLRSEDTAVYYCARGGRALFYDSYTTPFDGGSWWFDPWGQGSLVTVSS VL: DIQLTQSPSSLSASVGDRVTFTCQASQDIRQYLNWYQQKPGKAPKLLIYDASNLKFGVPSRFSGSGSGTDFTFTISSLQPEDVATYYCQQFSALPITFGQGTRLQIKR | – | 1.88 nM | – | 8.21 nM | 0.922 nM | binding result [9]: binds |
| DG_3CH954-SG182/3CL-SK1 (antibody, V domains shown) VH: QVQLVQSGPDVEKPGASVKVSCKASGYTFTSNYIHWVRQAPGQGLEWMGVINPRGGSRRSAQKFQGRITMTRDTSTSTVYMELSSLRSEDTAVYYCARGGRALFYDSYTTPRDDGSWWFDPWGQGSLVTVSS VL: DIQLTQSPSSLSASVGDRVTFTCQASQDIRKYLNWYQQKPGKAPKLLIYDASNLKTGVPSRFSGSGSGTDFTFTISSLQPEDVATYYCQQFDDLPITFGQGTRLQIKR | – | 0.887 nM | 0.124 nM | 4.35 nM | 0.122 nM | – |
| DG_3CH955-SG182/3CL499-SK1 (antibody, human IgG1, kappa, V domains shown) VH: QVQLVQSGPDVEKPGASVKVSCKASGYTFTSNYIHWVRQAPGQGLEWMGVINPRGGSRRSAQKFQGRITMTRDTSTSTVYMELSSLRSEDTAVYYCARGGRALFYDSYTTPRDLGSWWFDPWGQGSLVTVSS VL: DIQLTQSPSSLSASVGDRVTFTCQASQDIRKYLNWYQQKPGKAPKLLIYDASNLKFGVPSRFSGSGSGTDFTFTISSLQPEDVATYYCQQFDALPITFGQGTRLQIKR | – | 1.26 nM | – | 8.26 nM | 1.03 nM | binding result [9]: binds |
| DG_3CH955-SG182/3CL-SK1 (antibody, V domains shown) VH: QVQLVQSGPDVEKPGASVKVSCKASGYTFTSNYIHWVRQAPGQGLEWMGVINPRGGSRRSAQKFQGRITMTRDTSTSTVYMELSSLRSEDTAVYYCARGGRALFYDSYTTPRDLGSWWFDPWGQGSLVTVSS VL: DIQLTQSPSSLSASVGDRVTFTCQASQDIRKYLNWYQQKPGKAPKLLIYDASNLKTGVPSRFSGSGSGTDFTFTISSLQPEDVATYYCQQFDDLPITFGQGTRLQIKR | – | 1.13 nM | 0.205 nM | 7.8 nM | 0.794 nM | – |
| DG_3CH-SG182/3CL499-SK1 (antibody, V domains shown) VH: QVQLVQSGPDVEKPGASVKVSCKASGYTFTSNYIHWVRQAPGQGLEWMGVINPRGGSTASAQKFQGRITMTRDTSTSTVYMELSSLRSDDTAVYYCARGGRALFYDSYTTPRDGGSWWFDPWGQGSLVTVSS VL: DIQLTQSPSSLSASVGDRVTFTCQASQDIRKYLNWYQQKPGKAPKLLIYDASNLKFGVPSRFSGSGSGTDFTFTISSLQPEDVATYYCQQFDALPITFGQGTRLQIKR | – | 11.1 nM | 4.03 nM | 8.35 nM | 4.73 nM | – |
| DG_3CH-SG182/3CL563-SK1 (antibody, V domains shown) VH: QVQLVQSGPDVEKPGASVKVSCKASGYTFTSNYIHWVRQAPGQGLEWMGVINPRGGSTASAQKFQGRITMTRDTSTSTVYMELSSLRSDDTAVYYCARGGRALFYDSYTTPRDGGSWWFDPWGQGSLVTVSS VL: DIQLTQSPSSLSASVGDRVTFTCQASQDIRQYLNWYQQKPGKAPKLLIYDASNLKFGVPSRFSGSGSGTDFTFTISSLQPEDVATYYCQQFSALPITFGQGTRLQIKR | – | 13.4 nM | 3.52 nM | 11.8 nM | 4.43 nM | – |

Reference: patent US20190218277A1 (Chugai, published 2019)
